This data set in a line: label from the status in PepcDB records.
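Note: failed if final PepcDB status was selected cloned or expressed and not failed if soluble or beyond.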

Turning to “AGVVVPKYTPSTENPGGPGEEPGDGLIDPAEPLDRGFMHLKGRELKSLNSISITGLNDGEKVILSTLAGLAARVTGDQVYINEGGPSSVWLKQMQNKYGIPVNTYNALAPLVQHYVETGVIKGYIVYTPYSEGQSHSINVATSLCGLLRGIAVPESLVDKVKAMGVTTELMDVRSYDEKWLYENYKDQLDKSLAADMKPEIFHHLRDYITMTNAFAFYDYNARRDWSWRTSILKDLDKGAYCFGYYDLDEWGMVNNASQLGVSMLPTDQAANLATLSSIYDTTGLKQRPATKEVVTEENVHYVTFLVSDGDNIAFNLWGQQGYMDHDLHGQFPLGYTISPSLYDLAPAALRWYYENSKEGDYFVAGPSGSSYIFPSKMSDADLDDYLAKLNEYVDKSGLNICNILDQKIMDNPKVYNKYLAQPNIDAIFYTGYGEKGDGRIKFSDNGKPVIEQRSVLWEGIDGGSNRGEESTVISQINSRSANPHSADGYTFVFVHCWTKNQQSIKTVIDGLNDNVRVVPVDQFVQLVKQNLGPK”, the protein production entry is “not failed”.
Regarding “AHHHHHHGSVVKRTMTKKFLEEAFAGESMAHMRYLIFAEKAEQEGFPNIAKLFRAIAYAEFVHAKNHFIALGKLGKTPENLQMGIEGETFEVEEMYPVYNKAAEFQGEKEAVRTTHYALEAEKIHAELYRKAKEKAEKGEDIEIKKVYICPICGYTAVDEAPEYCPVCGAPKEKFVVFE”, the protein production entry is listed as “not failed”.
As to “AIAAIAEKAKGKEWTSTEKSREEDQQASNQPNSIALPGTSAKRTKEKMSVKGSKVLCPKKKAEHTDNPRPQKKIPIPPLPSKLPPVNLIHRDILRAWCQQLKLSSKGQKLDAYKRLCAFAYPNQKDFPSTAKEAKIRKSLQKKLKVEKGETSLQSSETHPPEVALPPVGEPPALENSTALLEGVNTVVVTTSAPEALLASWARISARARTPEAVESPQEASGVRWCVVHGKSLPADTDGWVHLQFHAGQAWVPEKQEGRVSALFLLPASNFPPPHLEDNMLCPKCVHRNKVLIKSLQWE”, the protein production result was “failed”.
On to “AIAEHKEVVLLLLLFLKSGQGEPLDDYVNTQGPSLFSVTKKQLGAGSREECAAKCEEDKEFTCRAFQYHSKEQQCVIMAENRKSSIIIRMRDAVLFEK”, for which the protein production result was “not failed”.
Under “AIAQGENVDHAQPISTWSAEQELHLVVFTKPPIAGLTKQRLSREIGSTLATRISAALVENTLATAYDWLQGLDLQAGGTGAVHLYYTPVESEQAKAECVERWLDDSVRHRYPAFRIAPQKASKVQSTGDQKQDPLGSRLIQAFTEVTSLVDESRDAHVVVIGSDCPALDTAVLQQAFAALHAGHGAVIGPAQDGGYYLLGLAFAAAERTRWARVIYAAFGPHLVFSQNDVCARTVEALRNDGVRTICLPVTLNDVDTAQDLVHLPASMRPREWFSSANARLHKTSDLVETAPAPGSTTCDEEVDADKLDPSVQNVCSRQV” stands “not failed”.
For the sequence “AIATYPTNLEIIGGQGGSSFSFTGENNGASLEKIWVWVGGWQIKAVRAWLSDGRDETFGVPSGSHQEYVFTPGECFTSLSLWGNGAGTRLGAIKFKTNKGGEFFAHMTSWGLKTEYPMDVGSGYCLGIVGRGGSDIDCMGFMFLNAVQSTVLTNVNYPTINQLIPKVATEEIKSVSFENKTSVKQEQKVETSKKVIKTSSWSMTKSFSSTFSVEVSAGIPEIAEVSTGFSISFGVESTHSLEQTDEKNETLTTTVEVPPKKKVDVHITIGRASFDLPYTGTVKITCKNGSVLQYETKGQYKGVAYTDIKVNTVEKDL”, the protein production result was “not failed”.
For “AIQKQMLVPEVVVNKDGDWVTPVMKDEGSIQYFVVFRFINGNEIIEPKDKDYEKLGSFMRMFHEKTNGVLKSVPQTWRGYERPIYSEKKMIHEPLQCLLNTSFLSYEDKNKCLRIAERIQELTNSIQLREKQFVHGDMHFGNILVDKEDWYLLDFDECGFGYKEFDIGVPRLHLIASGQLEDAWGNFMMGYGENIS”, the protein production result is reported as “failed”.
As to “AIQVFDVTAVNISATSLTLIWKVSDNESSSNYTYKIHVAGETDSSNLNVSEPRAVIPGLRSSTFYNITVCPVLGDIEGTPGFLQVHTPPVP”, the protein production entry is listed as “not failed”.
“AIVKRFEPLLLVPIGFGGILSNLPDAGLAMSAIENAVYAAKPEVMTAFSEVLQLSSYMPADIKQALSSATPLQMTTLHLLAEQYQYSDGM”: the protein production result is given as “failed”.
“AKESEQKVTIDSAKHEKHTKDKEENNSANTVFFDKINDLLVASVKEFEGTVGISYLDLETGEQRSVNGQHEFYTASTIKVPLTMLVADTVASGQKKWTDLIPYNAEEDYEEGTGIIAYNIQPEYPLKTLQEYAITYSDNIAKNMLYDTLGGDAKAKREMYQRYLHKTPSIEEPQFSSEDALVILQKLYTEKATKPDYQAIYDSMKQSVFHERMETPTTQGKVAHKIGSYDEFIHDMGILETPHPFALAIFTKGPDNAKSAAFIASVTDKLWQLQVSEYPNQ”: the protein production entry is reported as “not failed”.
Turning to “AKRVVFVTVGTTSFDALVKAVVSQNVKDELQKRGFTHLLIQMGRGIFFPTKCDGADGSLVVDYFTFSSSIADYIRSASLVISHAGSGSIFETLKLGKPLIVVVNEDLMDNHQCELAEALEERKHLYYTRPHSLHQTLTKMELGSLVQYTPGDGTPVARIIDRFLG”, the protein production result is recorded as “failed”.
To “AKVVFYEKPGCVGNARQKALLTASGHELEVRNLLAEPWTRETLRPFFGDKPLIEWFNQSSPKVKAGAIDFAALGVEAALALMIEDPLLIRRPLMQSGDRREVGFDQATVHAWLG” belongs “failed”; to “ALFHKKLTEGVLMRDPKFLWCAQCSFGFIYEREQLEATCPQCHQTFCVRCKRQWEEQHRGRSCEDFQNWKRMN”, “not failed”.
As for “ALKQKIIGNGEKRVVTYAPTWREDDFISVGHYHFRWHFSLKKMMGLLPEDVMLLIRPHYLVTDRIDIKGFEDRVVIDSTTDMNEIYLITDLMVTDYSSVMFDFAILKRPMLFFAYDLEYYRDDLRGFYFDYYTELPGSIVTDETHLLAEIDQLLQNNFAELDPERFNKFAKRFVSWERGTAAQQVIEKINY”, the protein production entry is “not failed”.
For “ALPDPVKPKAPKAVNPFHLGMAGYTFVNFDLDTTLKTLERLDIHYLCIKDFHLPLNSTDEQIRAFHDKCAAHKVTGYAVGPIYMKSEEEIDRAFDYAKRVGVKLIVGVPNYELLPYVDKKVKEYDFHYAIHLHGPDIKTYPDATDVWVHTKDLDPRIGMCLDVGHDLRNGCDPVADLKKYHTRVFDMHIKDVTDSSKAGVGIEIGRGKIDFPALIRMMREVNYTGMCSLEYEKDMKDPFLGIAESIGYFKAVSDLT”, the protein production entry was “not failed”.
As for “ANIYTFDFDEIESQEDFYRDFSQTFGLAKDKVRDLDSLWDVLMNDVLPLPLEIEFVHLGEKTRRRFGALILLFDEAEEELEGHLRFNVRH”, the protein production entry is “not failed”.
In the case of “APSQGATANAETQTTIPLGDTSQNALDWPGVYEGVLPCASCEGIQTTLTLQADNSFELKSIYLGKDESIFKVAGKFDWDSNGSKITLSDGSKYLVGENQLLMLDTEGNRITGGLAEHYILKKKGM”, the protein production result is given as “not failed”.
In the case of “AQGLDGRMLVEAPEEVGAPADVAARLGIEPGALVVHRRRRATIGEDVVQLQDAWYPLEIARAAGLDRPGKVVGGVLGAMTGAGLSPTSTDHDVEVWVPSAQQAAELSLGSRVSVLVVERVTYDATVRVLELTRHTGAADRLTLTYKGLPLRATGAEGSTS”, the protein production entry was “failed”.
Under “AQQQELPVPKPHQLKWHEAEMGAVFHYDLHVFDGIRYGQGNNRINPIEDYNIFNPTELNTDQWVQAAKAAGCKFAVLTATHETGFGLWQSDVNPYCLKAVKWRDGKGDIVRDFVNSCRKYGLQPGIYIGIRWNSLLGIHNFKAEGEGAFARNRQAWYKRLCEKMVTELCTRYGDLYMIWFDGGADDPRADGPDVEPIVNKYQPNCLFYHNIDRADFRWGGSETGTVEYPCWSTFPVPCSHHKRIESSIDQLELLKHGDKNGRYWVPAMADTPLRGANGRHEWFWEPDDENNIYPLNTLMDKYEKSVGRNATLILGLTPDPTGLIPAGDAQRLKEMGDEINRRFSSPIARISGQKKSLTLKLGKEQSVNYCIIQENIKNGERIRQYQIEAKVNGKWQTVCKGESVGHKRIEKFEPVEATALRLTVSESIALPDIINFSAYSVK” stands “not failed”; under “AQRRNEIQVPDLDGYTTLKCDFHMHSVFSDGLVWPTVRVDEAYRDGLDAISLTEHIEYRPHKQDVVSDHNRSFDLCREQAEKLGILLIKGSEITRAMAPGHFNAIFLSDSNPLEQKDYKDAFREAKKQGAFMFWNHPGWDSQQPDTTKWWPEHTALYQEGCMHGIEVANGHLYMPEAIQWCLDKNLTMIGTSDIHQPIQTDYDFEKGEHRTMTFVFAKERSLQGIREALDNRRTAAYFHELLIGREDLLRPFFEKCVKIEEVSRNEQGVTLSITNVTDLVLKLKKTAHDTLLVYFRDMTLKPHTRYTVRIGFKQGIKGGDVNFEVTNFIVAPDKGLKYTISL”, “not failed”; under “ARYYQHNAIEAVLEAISQGKNRMLLTLATGTGKTFIAFQLAWKLFQAKWNISGEPTHRPRILFLADRNILANQAFNAFGAFDDDALVRIDPKEIKKKGKVPKNGSLFFSIFQTFMTTKGDKDFAHFYDYAPDFFDFIIIDECHRGGANDESTWRKILEYFSPAVQLGLTATPKRDVNGDTYKYFGEPLYTYSLKEGINDGYLTPFKVVQFTTTLDEYLYDPDDDVIEGDIDEARTYEEKDFNRIIEMEEREKQRVQLFMEAINQNEKTLVFCATQDHALAVRDLINQMKISTDPNYCVRVTANDGSIGETNLKTFQDNEKAIPTILTTSRKLSTGVDARNVRNIVLLRPINSMIEFKQIIGRGTRLFDNKDYFTIYDFVRAYEHFNDDEWDGEPTEPVAIDPEPRKEREKIDLDLEDEPEENRKPQKIKVKLADGKERELAHTQTTTFWDADGKPISAQEFIEKLFGDLPDLFKDEAELRTIWGKPDTRKSFLTGLAE”, “failed”.
As to “ASASIKKVAATLADAAITDGIGDATKAKAALDKISDAGGLIEDIGATRAQFGANINRLEHTMTNLGNMVENTSAAKGRIM”, the protein production entry is “failed”.
Under “ASPVENKEVYQCRLCNAKLSSLLEQGSHERLCRNAAVCPYCSLRFFSPELKQEHESKCEYKKLTCLECMRTFKSSFSIWRHQVEVHNQNNMAPT” stands “not failed”; under “ATKEFIYLVRGMTPEQGQAALDLKVPGVYGIEEFRRFYPAGDVTAHMVGFTDLDDHGREGVELAYDDWLAGVPGKRQVIKDRRGRLIKDVQVTKNAKAGKTLALSID”, “failed”; under “ATLKQLDGIHVTILHKEEGAGLGFSLAGGADLENKVITVHRVFPNGLASQEGTIQKGNEVLSINGKSLKGTTHHDALAILRQAREPRQAVIVTRKLTPEAMPDLNS”, “not failed”.
To “AWMHGHRFYVDERVIVPRSFIGELLDDGLQPYVEDPELVGSVLELCTGSGCLAILAALAFPNASVDAVDLSADALAVAKINRDDYGLDERIALHHGDLYAPLPQFKWIDSAQRYDVIITNPPYVNAESMAELPAEYRHEPEMALAGGADGMDIVRRIIGEARRWLKDDGVLVVEIGNERANVEAAFGGLELVWLPTSAGDDSVFLIHASD” belongs “failed”; to “AYGLTFEAPKGILVEEDTEETFLLNNSRFYITIQSLDSDGMTKSDLKSVLKDYANDDGVKDQSAVQEFELPQFFGTYLKGSCETDHCLYACLMTKAAGSGFYISIIYSKENENIAEKILKSFTMEE”, “not failed”.
Take “CKLCLGEYPVEQMTTIAQCQCIFCTLCLKQYVELLIKEGLETAISCPDAACPKQGHLQENEIECMVAAEIMQRYKKLQFER”: the protein production result is recorded as “not failed”.
In the case of “CSEVNVVKERPKTDEHKSYSCSFKGCTDVELVAVICPYCEKNFCLRHRHQSDHDCEKLEVAKPRMAATQKLVR”, the protein production result is “not failed”.
As to “CVACSKPISGLTGAKFICFQDSQWHSECFNCGKCSVSLVGKGFLTQNKEIFCQKCGSGMDTDI”, the protein production entry is reported as “not failed”.

These data come from a protein production outcome set (Wang et al. 2014).
